# Measurements as given in the supplement of paper PMC10724198.
# ± gives the standard deviation of the averaged measurements.
# Tested on: Saccharomyces cerevisiae
# Test: protein stability index of tFT-peptide fusion (C-terminal peptide) (PSI (0-1 scale)); higher = more stable (slower turnover)
# Details: genetic background: wild type; temperature: 30 C
# 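Also: PSI is a weighted mean of sequencing reads over stability bins, variants kept only with over 10 reads, mCherry proximal and sfGFP distal, peptide attached via GGGS linker.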
row,Sequence,protein stability index
1,PPRPRSARLFLR,0.728 ± 0.05
2,PPRRPPPPPPLP,0.7168 ± 0.0045
3,PPRVVPDISTSL,0.699 ± 0.039
4,PPSATPPHPPPS,0.666 ± 0.052
5,PPSGSFLFSVHP,0.734 ± 0.016
6,PPSLFRFPPPPR,0.709 ± 0.074
7,PPSLPPHASPTP,0.762 ± 0.079
8,PPSNSFHSSIPY,0.678 ± 0.02
9,PPSPAFSSSLPP,0.635 ± 0.025
10,PPSPAPHATARP,0.662 ± 0.062
11,PPSPFHPPPPER,0.551 ± 0.013
12,PPSPPILPPRPP,0.687 ± 0.015
13,PPSPPPPSRPIH,0.776 ± 0.021
14,PPSPPPPYPAPP,0.679 ± 0.015
15,PPSPPRPHFPSL,0.739 ± 0.042
16,PPSPRPVPPPCH,0.705 ± 0.072
17,PPSPSFLPPPPP,0.676 ± 0.024
18,PPSQLPPPPASD,0.746 ± 0.2
19,PPSSGPPSPSSL,0.578 ± 0.095
20,PPSSPPHSRRHG,0.664 ± 0.055
21,PPSVPSRLSHVL,0.69 ± 0.034
22,PPTCRLQPYSRN,0.759 ± 0.013
23,PPTLVPPFPTKV,0.742 ± 0.064
24,PPTPPPPLPSSF,0.77 ± 0.075
25,PPTPRPHPPSRP,0.758 ± 0.022
26,PPTPSAPHRTRI,0.732 ± 0.026

row,Sequence,protein stability index
1,PPTPSPAPSPAP,0.601 ± 0.011
2,PPTSHHHYHRQQ,0.695 ± 0.053
3,PPVGPPFPPLPH,0.784 ± 0.13
4,PPVLAPCLPLTG,0.681 ± 0.067
5,PPVLHSSEPPDS,0.707 ± 0.024
6,PPWPPLLPRPSP,0.666 ± 0.03
7,PQLCSPLITIGV,0.5961 ± 0.0032
8,PQLLGWCVGPCR,0.694 ± 0.024
9,PQPLNTLRLTSS,0.671 ± 0.034
10,PQSVMFFGAPVW,0.687 ± 0.034
11,PQTPPPLLPPSL,0.671 ± 0.013
12,PQTVAHPPPPPR,0.688 ± 0.04
13,PRAGPLAALSLS,0.695 ± 0.026
14,PRCIELASMRRP,0.681 ± 0.068
15,PRCVRFPPVTLL,0.7393 ± 0.0036
16,PRDQPPDGHASP,0.6717 ± 0.002
17,PREVGVYQQIRD,0.63 ± 0.019
18,PRFFCSGSSPLR,0.721 ± 0.026
19,PRFSFSGLPLPP,0.681 ± 0.11
20,PRFSLFSTDHYY,0.679 ± 0.16
21,PRGFVHLPPPYT,0.756 ± 0.12
22,PRGHLDEFCVVL,0.705 ± 0.019
23,PRGHPPIPPPLP,0.69 ± 0.035
24,PRGPPTPPLTSP,0.669 ± 0.043
25,PRGWAGGQITPR,0.686 ± 0.03
26,PRGYSASPNLTS,0.716 ± 0.023

row,Sequence,protein stability index
1,PRIIPRLARPQS,0.69 ± 0.014
2,PRIKWKIQIIKK,0.668 ± 0.011
3,PRLPPPPTPPLP,0.649 ± 0.16
4,PRLPRRTTTIHG,0.71 ± 0.035
5,PRLSPPRSPSPP,0.665 ± 0.0091
6,PRLSSPAATSPP,0.709 ± 0.012
7,PRPAPHTGPSPG,0.613 ± 0.029
8,PRPCASALPPHP,0.712 ± 0.051
9,PRPCLPPDPPPS,0.654 ± 0.0071
10,PRPDSRTRLPRP,0.661 ± 0.019
11,PRPGSTTPPAYR,0.7163 ± 0.0053
12,PRPLTRPVPPLS,0.68 ± 0.13
13,PRPNGLSTDDLE,0.729 ± 0.056
14,PRPPANILPSAP,0.713 ± 0.07
15,PRPPHLPPPVPS,0.7299 ± 0.0016
16,PRPPLPLFPSSL,0.723 ± 0.048
17,PRPPPHPPPSPL,0.50931 ± 0.00043
18,PRPPPLPPPLPL,0.5773 ± 0.0032
19,PRPRLPVLPSPS,0.641 ± 0.098
20,PRPRPSPLPPPS,0.751 ± 0.13
21,PRPSPFIGLPFP,0.749 ± 0.067
22,PRQAPPSLPSPP,0.697 ± 0.076
23,PRRFPCRLRLGF,0.702 ± 0.074
24,PRSPARPPFPTP,0.6835 ± 0.0049
25,PRSPPCPLPPPL,0.65 ± 0.11
26,PRSRSHPLCSAP,0.813 ± 0.062

row,Sequence,protein stability index
1,PRSSVPATPHRR,0.72 ± 0.031
2,PRSTWPFRLFVR,0.531 ± 0.053
3,PRTAAFDSLLPT,0.688 ± 0.036
4,PRVRSPLLSPPQ,0.606 ± 0.017
5,PRYSVRGQPRET,0.728 ± 0.0061
6,PSAFQCQWKTSA,0.6383 ± 0.0014
7,PSAPFPPVYPLH,0.687 ± 0.017
8,PSARASSRTAPS,0.661 ± 0.015
9,PSASYLPCRSKL,0.7474 ± 0.0046
10,PSCPAPPAARPL,0.74 ± 0.11
11,PSCYDPCSPPPH,0.723 ± 0.047
12,PSDGCSPSSTGN,0.696 ± 0.076
13,PSEFGAGYVMGG,0.71 ± 0.017
14,PSELGAGYVMGG,0.6936 ± 0.0034
15,PSFHASSLSWFS,0.745 ± 0.039
16,PSFLLPPLPPPT,0.718 ± 0.0086
17,PSHPPRHCPPAA,0.6628 ± 0.0024
18,PSHQRVRGLPSL,0.697 ± 0.041
19,PSLLFHPAPFFP,0.756 ± 0.085
20,PSLLHPPLPTSP,0.657 ± 0.036
21,PSLLSMHSFSLC,0.68 ± 0.014
22,PSLPFPPSPPPC,0.7067 ± 0.0022
23,PSLPLSPLSDSR,0.717 ± 0.032
24,PSLPPAYPSIAI,0.737 ± 0.067
25,PSLSDPLAPPQG,0.757 ± 0.089
26,PSLSPYPLQPRY,0.751 ± 0.034

row,Sequence,protein stability index
1,PSLTLPPSPRFP,0.7585 ± 0.0029
2,PSNSRPRASPAC,0.67 ± 0.039
3,PSPAPSGPAHHP,0.667 ± 0.05
4,PSPLALRTPSFS,0.692 ± 0.02
5,PSPLPMYPPPTF,0.693 ± 0.0083
6,PSPLPVSAPLLP,0.701 ± 0.039
7,PSPLTPAAPFPL,0.674 ± 0.056
8,PSPPAPPPETSP,0.713 ± 0.031
9,PSPPASTPLPPP,0.684 ± 0.024
10,PSPPCPPTDPPA,0.624 ± 0.011
11,PSPPFLPPPVPL,0.685 ± 0.056
12,PSPPHLHLHLAP,0.665 ± 0.013
13,PSPPHPPPPLFP,0.706 ± 0.02
14,PSPPLCPPRFSP,0.652 ± 0.025
15,PSPPLPPLPPSP,0.575 ± 0.053
16,PSPPPAPLHSPL,0.704 ± 0.058
17,PSPPPAPPPQPS,0.678 ± 0.052
18,PSPPPLPSPPSL,0.738 ± 0.087
19,PSPPPTPPPFLP,0.71 ± 0.054
20,PSPPRKHAPFRP,0.737 ± 0.0085
21,PSPRPSPPLPSP,0.647 ± 0.076
22,PSPSPLPASFRL,0.683 ± 0.11
23,PSPSPPPCPYPP,0.677 ± 0.054
24,PSPSSPLPPPPP,0.794 ± 0.035
25,PSPTPSPPFPAP,0.721 ± 0.038
26,PSPTRLPPPSPH,0.757 ± 0.008

row,Sequence,protein stability index
1,PSPYFPVPLLPS,0.701 ± 0.028
2,PSQKRITDPRET,0.683 ± 0.047
3,PSRDGNLYAQCR,0.618 ± 0.048
4,PSRPTLLTPLSP,0.695 ± 0.045
5,PSRRFLPEKRSL,0.678 ± 0.0039
6,PSRRPPLPLPRP,0.714 ± 0.013
7,PSRRPPPPPFLP,0.7 ± 0.036
8,PSRTSPLSHIPF,0.676 ± 0.023
9,PSSFPDPFSPSL,0.735 ± 0.037
10,PSSHPLLPPPPP,0.67 ± 0.06
11,PSSPHTAIRHPL,0.671 ± 0.02
12,PSSPIFPFSSLP,0.599 ± 0.15
13,PSSPTYVPPSFL,0.6754 ± 0.0022
14,PSSSSWPPPRHP,0.831 ± 0.18
15,PSSSYLSCLPSW,0.703 ± 0.083
16,PSSTSPQPRLCF,0.686 ± 0.027
17,PSTPPPRLHPSS,0.642 ± 0.032
18,PSVPSAAPPSSA,0.703 ± 0.02
19,PSVRQSSPRFLH,0.667 ± 0.067
20,PSYSPPPHPVHR,0.686 ± 0.05
21,PTFRLGGYYRKS,0.703 ± 0.055
22,PTGLTNPPPCPQ,0.716 ± 0.11
23,PTHGPSPPNVAT,0.6595 ± 0.00038
24,PTIKPSPRFPLS,0.71 ± 0.021
25,PTKLFDTRPRGA,0.679 ± 0.05
26,PTLLRRPLPNLG,0.73 ± 0.02

row,Sequence,protein stability index
1,PTLPPPPRPPAP,0.657 ± 0.016
2,PTLPTPAARPGR,0.696 ± 0.016
3,PTLSPPSPPPPA,0.665 ± 0.035
4,PTPGRSPKRLPE,0.752 ± 0.026
5,PTPLPHTRATPT,0.778 ± 0.015
6,PTPNPGHTRACL,0.763 ± 0.23
7,PTPPCPLVPPRP,0.72 ± 0.074
8,PTPPTPTISPTP,0.651 ± 0.0052
9,PTQFSSAADLSA,0.637 ± 0.062
10,PTRERPSDQPYP,0.701 ± 0.04
11,PTRGLTARPFLW,0.62 ± 0.042
12,PTRQKRPPYRIK,0.711 ± 0.031
13,PTRRPDLFYYSS,0.74 ± 0.017
14,PTRSPPPAAIAS,0.697 ± 0.14
15,PTSLLPLRLLNS,0.61185 ± 0.00055
16,PTSLPPLSRPPP,0.723 ± 0.029
17,PTSPLVFFFVPL,0.624 ± 0.037
18,PTSQRPFFLISP,0.704 ± 0.015
19,PTTTPHPHIATP,0.711 ± 0.14
20,PTVFMNIQKQNI,0.678 ± 0.042
21,PTVNIDSQSRSP,0.692 ± 0.079
22,PVASFLACSIAG,0.602 ± 0.032
23,PVCELCLITLRG,0.59 ± 0.053
24,PVDDFVCLEVDS,0.688 ± 0.061
25,PVFPSFGVSEFV,0.753 ± 0.059
26,PVFTLLPTCYCA,0.6073 ± 0.0025

row,Sequence,protein stability index
1,PVGDDDRTIPRL,0.661 ± 0.043
2,PVGEEPRPRNVR,0.674 ± 0.063
3,PVGWVEASLSPG,0.721 ± 0.027
4,PVLFSPPSPFFP,0.708 ± 0.083
5,PVLGRTLAFRSL,0.659 ± 0.057
6,PVLHSPHSLPPR,0.734 ± 0.11
7,PVLLPPCCLAIV,0.548 ± 0.026
8,PVLRPPTPPRFR,0.661 ± 0.028
9,PVPKAPPCNRRR,0.663 ± 0.0099
10,PVPLRPLSPPPP,0.68 ± 0.0099
11,PVPPPLSPLPTP,0.703 ± 0.11
12,PVPPRLPLPAPL,0.757 ± 0.051
13,PVSPPLPTPPPP,0.616 ± 0.056
14,PVSVCADRPPAP,0.715 ± 0.063
15,PVVFAGLLLHGH,0.694 ± 0.042
16,PWGGLGTGWGRR,0.75 ± 0.035
17,PWGSGSDRAGRG,0.746 ± 0.062
18,PWVLSLASGSPS,0.687 ± 0.026
19,PYAPYRPQVDSS,0.708 ± 0.018
20,PYFQASLSCLPS,0.744 ± 0.036
